The values below come from the RNAGym collection of RNA variant scans (doi:10.7554/elife.80360).

The chains are these.
B1: Twister Ribozyme (parent)
chain: AACACUGCCAAUGCCGGUCCCAAGCCCGGAUAAAAGUGGAGGGGGCGG

Variants of B1 are the subject of the data set. Kind of data set: self-cleavage, relative activity (ratio to wild type); higher = more cleavage; co-transcriptional.
A11C G29U: the self-cleavage came out at 0.681. Turning to C9U C25U, the self-cleavage stood at 0.404. As to C3A G41A, the self-cleavage is 0.0897. On to G38A G42U, for which the self-cleavage was determined as 0.133. On to C5U C25A, for which the self-cleavage turned out to be 0.0792. As to G7U A11C, the self-cleavage was determined as 0.0886. Turning to A11G G44A, the self-cleavage stood at 0.778. With A2C G28C the figure was 0.0792; with G7U U37A, 0.0497; with C14U G41U, 0.719. Consider A11G G17U, for which the self-cleavage worked out at 0.188. As for A11C G17C, the self-cleavage worked out at 0.0996.

With C8U G28A, the self-cleavage stood at 0.446.

Take G36C G41A: the self-cleavage came to 0.134. As to C19G G29A, the self-cleavage worked out at 0.258.

C9A C27A: the self-cleavage worked out at 0.103. Regarding C8U G47C, the self-cleavage came out at 0.199. With C5U G16A, the self-cleavage stood at 0.584.

On to A34G, for which the self-cleavage came out at 0.874.

With C15G C19G, the self-cleavage is 0.0636.

In the case of G42C G43C, the self-cleavage stood at 0.365. On to G24A U31C, for which the self-cleavage was 0.0777. Consider G7A A11C, for which the self-cleavage is 0.0895.

As for A10G C20U, the self-cleavage worked out at 0.878. With G13C A30U the figure was 0.612. In the case of G7C A10U, the self-cleavage came out at 0.0545.

As to C5A C21U, the self-cleavage is 0.0869. Consider C21U G41U, for which the self-cleavage was 0.136.

G36A A40C: the self-cleavage is 0.115.

Turning to A11G G16U, the self-cleavage worked out at 0.875. On to C3G G42U, for which the self-cleavage amounted to 0.118. With C5A A32G the figure was 0.542. With G36C A40G the figure was 0.0963.

With U18G G39U, the self-cleavage amounted to 0.0734.

In the case of A35U G44U, the self-cleavage is 0.92. Take G24A G45A: the self-cleavage amounted to 0.122. Take U37G G45C: the self-cleavage turned out to be 0.268. A11G A34G: the self-cleavage is 0.819. For the variant U18A A30C, the self-cleavage stood at 0.104.

With U6A G38C, the self-cleavage is 0.594. Regarding A35U A40C, the self-cleavage is 0.195. With G16A A34U the figure was 0.417.

On to C46G, for which the self-cleavage is 0.951. Regarding U12G G36C, the self-cleavage is 0.475. On to C5G C20U, for which the self-cleavage was determined as 0.65.

Take A22U C26U: the self-cleavage turned out to be 0.103. In the case of A1U G43U, the self-cleavage is 0.0499. With A32C G43U the figure was 0.344; with C9A G48A, 0.357.

For the variant G13U G43A, the self-cleavage amounted to 0.143. Consider C26U A34C, for which the self-cleavage is 0.133. In the case of U6G A30G it was 0.322; in that of A30U G42U, 0.434.

As to A1G G38U, the self-cleavage came to 0.211.

In the case of G13A G28A, the self-cleavage was determined as 0.579. Take C19A G41A: the self-cleavage was found to be 0.0916. Take A1U G47C: the self-cleavage stood at 0.068. With C5U C15U the figure was 0.762; with G38A G39A, 0.4; with A32G A33C, 0.833.

On to C20G G39C, for which the self-cleavage was 0.0945. With C20G G39A, the self-cleavage is 0.106. For the variant A40U G47A, the self-cleavage stood at 0.164. Consider C8G G36C, for which the self-cleavage amounted to 0.119. For the variant U6A A10U, the self-cleavage came to 1.

Take U6A A10G: the self-cleavage was determined as 1.22. Take G7C G13A: the self-cleavage came out at 0.0687. As to C5G G24C, the self-cleavage was 0.118. Regarding A11G C15A, the self-cleavage was 0.567. As to A10U A32C, the self-cleavage is 0.983. Turning to A4U G7C, the self-cleavage turned out to be 0.0628. C14G G29U: the self-cleavage stood at 0.192. In the case of C15G U37C it was 0.114; in that of A1C C20U, 0.187; in that of C5A C20U, 0.465. In the case of A4G G42A, the self-cleavage is 0.289. Regarding G13C G48A, the self-cleavage stood at 0.115. A2C G48A: the self-cleavage stood at 0.0475. As to C5U C27U, the self-cleavage amounted to 0.483. In the case of A1G G17C it was 0.128; in that of G41A G44U, 0.228. U6C G13C: the self-cleavage stood at 0.107.

Consider C26U G47A, for which the self-cleavage came to 0.149. Regarding C8U A35G, the self-cleavage is 0.559.

Turning to G13U G28U, the self-cleavage was determined as 0.466. On to C25U C26U, for which the self-cleavage was 0.132.

As for C25A G41A, the self-cleavage was 0.074. Take A4U G28A: the self-cleavage stood at 0.0702.

With C8G U12A, the self-cleavage was found to be 0.609. With G13C G16A the figure was 0.129. With G38U G47U the figure was 0.813; with C26G A40U, 0.12; with G39C G42U, 0.144. With A2U A35G the figure was 0.207. On to C15U G17A, for which the self-cleavage came out at 0.204. As to G7U G42U, the self-cleavage came out at 0.0886. In the case of U18G A32C, the self-cleavage is 0.0661. On to C5U G28C, for which the self-cleavage was 0.434.

Take C21A A34U: the self-cleavage worked out at 0.102. For U18C G41C, the self-cleavage is 0.0753. For the variant A23G A32C, the self-cleavage turned out to be 0.366. In the case of G39U A40U, the self-cleavage is 0.158. G7U C26G: the self-cleavage was determined as 0.0462.

Regarding C26G U31C, the self-cleavage was 0.165.

With C8U A40U, the self-cleavage was 0.17.

On to C21A G43C, for which the self-cleavage came to 0.0785.

As for A1U G45A, the self-cleavage stood at 0.0481. On to A23C G24C, for which the self-cleavage was found to be 0.124. In the case of U6C A11G, the self-cleavage was 0.535.

G17C G42U: the self-cleavage is 0.0737. As for U6A C20G, the self-cleavage stood at 0.0822. Turning to G13U C25G, the self-cleavage is 0.0724.

As to A23C A32U, the self-cleavage stood at 0.241. For A22C A23C, the self-cleavage is 0.148. As for G28A G36A, the self-cleavage came to 0.397. In the case of C27A A32C it was 0.484.

In the case of G24C G39A, the self-cleavage stood at 0.0888.

As to G24U C26A, the self-cleavage was 0.0928. As for C25A A32G, the self-cleavage came out at 0.0602. With U18C U31C the figure was 0.569. In the case of C3G C8U, the self-cleavage came out at 0.389. As to U37C G43A, the self-cleavage stood at 0.142. With A4G G45U the figure was 0.741. Consider G7C U18A, for which the self-cleavage is 0.0787. In the case of C3A C26G, the self-cleavage stood at 0.0639. Consider C21G G43A, for which the self-cleavage was 0.0243.

G36U A40G: the self-cleavage was found to be 0.125. For the variant G7U G29A, the self-cleavage turned out to be 0.0635. In the case of A4U U37A it was 0.7; in that of C15A A34G, 0.422; in that of C5G U18C, 0.196. With A33G G41U the figure was 0.381.

For G47A G48A, the self-cleavage was 1.31. In the case of C15U C46A it was 0.944; in that of A4C C20G, 0.0372. Consider G24U G45U, for which the self-cleavage turned out to be 0.091.

As for U12C C19U, the self-cleavage was determined as 0.951. In the case of G47U G48U, the self-cleavage came to 1.57. As for C3A G43C, the self-cleavage stood at 0.0669. For G16A G17U, the self-cleavage turned out to be 0.232. With A2G C20U the figure was 0.115; with A35C G44C, 0.943; with G43A G48A, 0.244. Turning to A35U G42U, the self-cleavage was 0.374. Take C15G G28U: the self-cleavage stood at 0.761. In the case of U31C A34C it was 0.196. Take C21A A30U: the self-cleavage was determined as 0.152. Turning to U18A G41U, the self-cleavage was 0.125.

Consider G29A A34C, for which the self-cleavage was determined as 0.282. Take U18A G24U: the self-cleavage stood at 0.094. A11U A23G: the self-cleavage was determined as 0.755. Take C8U G41C: the self-cleavage amounted to 0.0951. Regarding G28A G43C, the self-cleavage was determined as 0.163.

In the case of U12G G45A, the self-cleavage was 0.583. As for A30C G47C, the self-cleavage was 0.17.

For A10C C20G, the self-cleavage came out at 0.0778. With A1U G24C the figure was 0.0779; with C19G A32U, 0.287. In the case of G17C G45A it was 0.132; in that of G7C A40C, 0.0472.

As for A11C C46U, the self-cleavage was determined as 0.736. C20U G36U: the self-cleavage was 0.0929. Regarding U6G A33G, the self-cleavage worked out at 0.199. With U6G A33U the figure was 0.234; with C26U U31G, 0.503; with C15G G43A, 0.0569. G17C A34U: the self-cleavage was found to be 0.0853.
